This is an account of results in US20190338048A1.

For one test, the target named is Recombinant HER2 protein (HER2-ECD) (UniProt P04626). Description: SPR.
Regarding “Pertuzumab Fab heterodimer, H2 L45P_L143E_K145T_Q179E / L2 P44F_Q124R_T178R”, the Kd (usually the concentration at which binding is half-saturated) is 5.9 nM.

As for “Pertuzumab Fab heterodimer, H2 Q39E_L143E_K145T_Q179E / L2 Q38R_Q124R_T178R”, the Change in KD of H2L2 Fab vs wild type, -(log(KD design)-log(KD wt)) worked out at 0.023 and the dissociation constant Kd was 7.4 nM.

Consider “Pertuzumab Fab with H2 L45P_L124R_Q179K and L2 P44F_V133G_S176D_T180E”, for which the Change in KD of H2L2 Fab vs wild type is 0.065 and the equilibrium dissociation constant (Kd) is 6.7 nM.

As to “Pertuzumab Fab with H2 Q39E_L124R_Q179K and L2 Q38R_V133G_S176D_T180E”, the Change in KD of H2L2 Fab vs wild type is 0.016 and the dissociation constant Kd stood at 7.5 nM.

Regarding “Pertuzumab Fab, H2 L45P_L143R / L2 P44F_Q124E_V133D”, the equilibrium dissociation constant (Kd) was found to be 5.9 nM.

As to “Pertuzumab Fab, H2 Q39E_L143R / L2 Q38R_Q124E_V133D”, the Kd was 7.5 nM.

The next test concerns the target Recombinant human IL-17A (human) (UniProt Q16552). Put plainly: SPR. (In general: In SPR one partner is held on a chip, and binding of the other changes the refractive index at the surface.)
For “CAT-2200 Fab heterodimer (H1L1) with H1 K145T_V177D_S188D and L1 S176K_Y178K”, the Kd worked out at 0.27 nM.

In the case of “CAT-2200 Fab heterodimer (H1L1) with H1 K145T_V177D_S188D and L1 S176K_Y178R”, the dissociation constant (Kd) stood at 0.27 nM.

“CAT-2200 Fab heterodimer (H1L1) with H1 L143K and L1 K129T_V133D”: the Change in KD of H1L1 Fab vs wild type, -(log(KD design)-log(KD wt)) stood at 0.03 and the dissociation constant Kd was determined as 0.26 nM.

As for “CAT-2200 Fab heterodimer H1 L143E_K145T_Q179E / L1 E124Q_T131R”, the Change in KD of H1L1 Fab vs wild type was -0.03 and the Kd was determined as 0.29 nM.

As to “CAT-2200 Fab heterodimer H1 L143K / L1 K129T_V133D”, the Change in KD of H1L1 Fab vs wild type was determined as 0.03 and the Kd came out at 0.26 nM.

“CAT-2200 Fab heterodimer H1L1 of design 10652-10755 (H1 L143E_K145T, L1 E124R)”: the dissociation constant Kd amounted to 0.28 nM.

For the substance “CAT-2200 Fab heterodimer H1L1 with H1 F174G and L1 T116F_S176F”, the Change in KD of H1L1 Fab vs wild type stood at 0.08 and the Kd was 0.23 nM.

For “CAT-2200 Fab heterodimer H1L1 with H1 K145T_S188E and L1 Y178K”, the Change in KD of H1L1 Fab vs wild type is -0.1 and the dissociation constant (Kd) was 0.34 nM.

In the case of “CAT-2200 Fab heterodimer H1L1 with H1 K145T_V177D_S188D and L1 S176K_Y178K”, the Change in KD of H1L1 Fab vs wild type was found to be 0 and the equilibrium dissociation constant (Kd) was determined as 0.27 nM.

For “CAT-2200 Fab heterodimer H1L1 with H1 L143D_K145T and L1 E124Q_T131K”, the Change in KD of H1L1 Fab vs wild type was determined as 0.1 and the dissociation constant (Kd) was found to be 0.22 nM.

Consider “CAT-2200 Fab heterodimer H1L1 with H1 L143D_K145T and L1 E124Q_T131K_V133S”, for which the Change in KD of H1L1 Fab vs wild type is -0.08 and the Kd turned out to be 0.33 nM.

Regarding “CAT-2200 Fab heterodimer H1L1 with H1 L143D_K145T and L1 E124Q_T131R”, the Change in KD of H1L1 Fab vs wild type is -0.1 and the Kd stood at 0.35 nM.

“CAT-2200 Fab heterodimer H1L1 with H1 L143E_K145T_Q179E and L1 E124Q_T131R”: the Change in KD of H1L1 Fab vs wild type, -(log(KD design)-log(KD wt)) was -0.03 and the Kd came to 0.29 nM.

For the substance “CAT-2200 Fab heterodimer H1L1 with H1 S186R and L1 K129T_S180E”, the Change in KD of H1L1 Fab vs wild type, -(log(KD design)-log(KD wt)) was 0.03 and the dissociation constant Kd was 0.26 nM.

Turning to “CAT-2200 Fab heterodimer H1L1 with H1 V177I_S188K and L1 V133L_S176D_Y178E (Kabat)”, the Kd is 0.22 nM.

As for “CAT-2200 Fab heterodimer H1L1 without pairing substitutions (H1L1 of Mab design sets 10771-11335 and 10771-11360)”, the Change in KD of H1L1 Fab vs wild type, -(log(KD design)-log(KD wt)) was determined as 0.

Take “CAT-2200 Fab heterodimer H1L1 without pairing substitutions (wild-type H1 and L1)”: the Change in KD of H1L1 Fab vs wild type, -(log(KD design)-log(KD wt)) was found to be 0.

In the case of “CAT-2200 Fab heterodimer, H1 S186R / L1 K129T_S180E”, the Change in KD of H1L1 Fab vs wild type, -(log(KD design)-log(KD wt)) is -0.088 and the Kd was 0.26 nM.

On to “CAT-2200 Fab heterodimer, H1 S188K / L1 S176E_Y178E”, for which the Change in KD of H1L1 Fab vs wild type, -(log(KD design)-log(KD wt)) is -0.24 and the dissociation constant Kd amounted to 0.36 nM.

Turning to “CAT-2200 Fab heterodimer, H1 V177I_S188K / L1 V133I_S176D_Y178E”, the Change in KD of H1L1 Fab vs wild type is 0.08.

In the case of “CAT-2200 Fab heterodimer, H1 V177I_S188K / L1 V133L_S176D_Y178E”, the Change in KD of H1L1 Fab vs wild type was found to be 0.08.

As to “CAT-2200 Fab with H1 K145T_S188E and L1 Y178K”, the Change in KD of H1L1 Fab vs wild type was -0.22 and the Kd stood at 0.34 nM.

In the case of “CAT-2200 Fab, H1 A125R_S186R / L1 S122D_K129T_S180E”, the Change in KD of H1L1 Fab vs wild type, -(log(KD design)-log(KD wt)) is -0.0041 log(KD) and the dissociation constant Kd turned out to be 0.21 nM.

Turning to CAT-2200 Fab, H1 K145T_S188E / L1 Y178K, the Change in KD of H1L1 Fab vs wild type was -0.22 and the Kd came to 0.34 nM.

“CAT-2200 Fab, H1 L143D_K145T / L1 E124Q_T131R”: the Change in KD of H1L1 Fab vs wild type is -0.22 and the Kd is 0.35 nM.

Turning to “CAT-2200 designed Fab heterodimer, H1 K145T_S188E / L1 Y178K”, the Change in KD of H1L1 Fab vs wild type, -(log(KD design)-log(KD wt)) is -0.22 and the Kd turned out to be 0.34 nM.

In the case of “CAT-2200 designed Fab heterodimer, H1 L143D_K145T / L1 E124Q_T131K_V133S”, the Change in KD of H1L1 Fab vs wild type, -(log(KD design)-log(KD wt)) is -0.19 and the Kd turned out to be 0.33 nM.

In the case of “CAT-2200 designed Fab heterodimer, H1 Q179K / L1 K129T_S180E”, the Change in KD of H1L1 Fab vs wild type, -(log(KD design)-log(KD wt)) is -0.056 and the Kd came out at 0.24 nM.

In the case of “CAT-2200 designed Fab heterodimer, H1 S186R / L1 K129T_S180E”, the Change in KD of H1L1 Fab vs wild type, -(log(KD design)-log(KD wt)) was -0.088 and the Kd was found to be 0.26 nM.

Turning to “CAT-2200 designed Fab, H1 A125R_S186R / L1 S122D_K129T_S180E”, the Change in KD of H1L1 Fab vs wild type was -0.0041 and the Kd worked out at 0.21 nM.

The next test has as its target Pertuzumab kappa light chain V133D (L2), N-terminal HA tag. Put plainly: LCCA, SPR of light chain tags.
Turning to “Pertuzumab Fab heavy chain L143S_S186K_S188T (H2), ABD2-His6 tagged”, the H2L2:H2L1 normalized median ratio is 63% and the H2L2:H2L1 normalized median scalar value ln(r1/f1) was 0.54.

The target of another test is Pertuzumab kappa light chain S176V (L2), N-terminal HA tag. Put plainly: LCCA, SPR of light chain tags.
As for “Pertuzumab Fab heavy chain S186I_S188W (H2), ABD2-His6 tagged”, the H2L2:H2L1 normalized median ratio amounted to 40% and the H2L2:H2L1 normalized median scalar value ln(r1/f1) is -0.39.

Take “Pertuzumab Fab heavy chain S186L_S188W (H2), ABD2-His6 tagged”: the H2L2:H2L1 normalized median ratio was determined as 40% and the H2L2:H2L1 normalized median scalar value ln(r1/f1) was -0.39.

The target of the next test is Recombinant HER2 protein (HER2-ECD) (UniProt P04626). Put plainly: SPR, ProteOn XPR36.
As for “Pertuzumab Fab, H2 L124R / L2 V133G_S176D”, the Kd is 8.28 nM.

“Pertuzumab Fab, H2 L143K / L2 Q124E_V133D”: the equilibrium dissociation constant (Kd) stood at 7.41 nM.

On to Pertuzumab Fab, H2 S186K / L2 V133D, for which the equilibrium dissociation constant (Kd) amounted to 8.01 nM.

In the case of “Pertuzumab Fab, H2 S188K / L2 S131D_V133G_T178F”, the Kd was determined as 8.46 nM.

Turning to “Pertuzumab Fab, H2 S188K / L2 S176E_T178E”, the Kd is 8.15 nM.

A further test deals with Recombinant human IL-17A (human) (UniProt Q16552). Put plainly: SPR, ProteOn XPR36.
For “CAT-2200 Fab heterodimer H1L1 with H1 K145T_V177D_S188D and L1 S176K_Y178R”, the Change in KD of H1L1 Fab vs wild type, -(log(KD design)-log(KD wt)) stood at 0.01 and the dissociation constant Kd worked out at 0.27 nM.

Regarding “CAT-2200 Fab heterodimer H1L1 with H1 K145T_V177T_S188E and L1 Y178K”, the Change in KD of H1L1 Fab vs wild type, -(log(KD design)-log(KD wt)) was found to be 0.11 and the Kd was determined as 0.21 nM.

For the substance “CAT-2200 Fab heterodimer, H1 V177I_S188K / L1 V133I_S176D_Y178E”, the Kd stood at 0.23 nM.

As for “CAT-2200 Fab heterodimer, H1 V177I_S188K / L1 V133L_S176D_Y178E”, the dissociation constant (Kd) worked out at 0.22 nM.

On to “CAT-2200 Fab, H1 K145T_V177T_S188E / L1 Y178K”, for which the Kd is 0.21 nM.

For “CAT-2200 Fab, H1 L143D_K145T / L1 E124Q_T131K”, the dissociation constant Kd turned out to be 0.22 nM.

Another test concerns the target Pertuzumab kappa light chain V133D (L2), N-terminal HA tag. Description: LCCA, SPR of light chain tags. This is another data set of the same source.
As to “Pertuzumab Fab heavy chain L143S_S186K_S188T (H2), ABD2-His6 tagged”, the H2L2:H2L1 normalized median ratio stood at 64% and the H2L2:H2L1 normalized median scalar value ln(r1/f1) was found to be 0.58.

The target in a further test is Recombinant HER2 protein (HER2-ECD) (UniProt P04626). Put plainly: SPR as for KD.
Regarding “Pertuzumab Fab, H2 L124R / L2 V133G_S176D”, the Change in KD of H2L2 Fab vs wild type, -(log(KD design)-log(KD wt)) is -0.01 log units.

Consider “Pertuzumab Fab, H2 L143K / L2 Q124E_V133D”, for which the Change in KD of H2L2 Fab vs wild type, -(log(KD design)-log(KD wt)) stood at 0.04 log units.

As to Pertuzumab Fab, H2 S186K / L2 V133D, the Change in KD of H2L2 Fab vs wild type, -(log(KD design)-log(KD wt)) turned out to be 0 log units.

Take “Pertuzumab Fab, H2 S188K / L2 S131D_V133G_T178F”: the Change in KD of H2L2 Fab vs wild type, -(log(KD design)-log(KD wt)) was -0.02 log units.

On to “Pertuzumab Fab, H2 S188K / L2 S176E_T178E”, for which the Change in KD of H2L2 Fab vs wild type, -(log(KD design)-log(KD wt)) is 0 log units.

In the next test the target is Recombinant human IL-17A (human) (UniProt Q16552). Put plainly: SPR as for KD.
With “CAT-2200 Fab, H1 K145T_V177T_S188E / L1 Y178K”, the Change in KD of H1L1 Fab vs wild type, -(log(KD design)-log(KD wt)) was 0.11 log units.

As for “CAT-2200 Fab, H1 L124E_V190D / L1 L135K_Y178F”, the Change in KD of H1L1 Fab vs wild type, -(log(KD design)-log(KD wt)) is -3.56 log units.

Turning to “CAT-2200 Fab, H1 L124E_V190D / L1 V133I_L135K”, the Change in KD of H1L1 Fab vs wild type, -(log(KD design)-log(KD wt)) is -3.56 log units.

In the case of “CAT-2200 Fab, H1 L124E_V190D / L1 V133I_L135K_Y178F”, the Change in KD of H1L1 Fab vs wild type, -(log(KD design)-log(KD wt)) was -3.56 log units.

Regarding “CAT-2200 Fab, H1 L143D_K145T / L1 E124Q_T131K”, the Change in KD of H1L1 Fab vs wild type, -(log(KD design)-log(KD wt)) is 0.1 log units.
